# Laboratory results taken from the DeepSol protein solubility set.
# Test: soluble on expression in E. coli; label from the status in PepcDB or PDB records
row,Sequence,soluble on expression in E. coli
1,MLRIEDLQLAAALAQAPSLSAAARALNVTPPALSMRLRKLEAGLGLALAVRSARRLSLTPEGERLAREAAALLAQLQALPESLRRDDSRLTGTLRVAAPFGYGRRHIAPVLARLAQRHPELRVQLDLRETPWPDHQDADAVVHIGAVRDSSWVTRRLADNERWLCASPQYLQDHGMPREPRDLLHHRCICIRENDEDASLWRFRRADAGAAGRKAAETVRIAPAYVSNDGNVARAWAEQGLGLVVRSQWDAEGAVARGALVRVMPQWQLDSAPVMLLVPGRKGRSARVKALLECFDEQAGHA,not soluble
2,MLRQIVLMCAIHTACSFSIRDIINGKRGADAAIPAPCPTWHPFACPSGECVPIKYLCDGSPDCSDEYDENKSMCTAATRPPVEETQAFLKALMSAHGKDFLVKVFGPKAKAELSGMGGVDKVAVALSQTPTADLFASEMKLDDGETQHMLEVMEGILNGSTDELTSNEAADFRFFVQKLQETGFF,not soluble
3,MLRSLVQNPKVRARVLERVDEFRLNNLSNEEVWFRELTLCLLTANSSFISAYQALNCLGQKIYYANEEEIRNILKSCKYRFYNLKAKYIIMAREKVYGRLKEEIKPLADEDQQLARERLLNIKGIGMQEASHFLRNVGYFDLAIIDRHIIDFMRRIGAIGETNVKQLSKSLYISFENILKSIASNLNMSVGILDLFIWYKETNTIVK,soluble
4,MLRSQAKNVDLTSQADSRHQQKRKQAEQLDALKNPSEPAAKKQHSKGLTELRAHISGFKIDSAKRDPLGKSRTSRRDVENLPPQKSRYVDPCPHYDYDLEEAGNPDSISDYAQGIFDYYRHREVHFRVRKYLHKHPEVDVKTRAILIDWMVEIQETFELNHETLYNAVKLTDMYLCKTKNVDKNTIQKLACVAIFIAAKYDERSPPLVDDLIYLSGDRFSRDELLAMERELFATVGYDLGSPLSYRYLRRFGRVCRVDMKTLTMGRFILETSLMVYEYAMVSQSRLAAAAFVLAMRMLDKNNEYEWNPVLEKYSGFTGEEVMPLVEHMNHILHFSKDKWAQLTSVRQKYSHEVFFHVASIPMLPDTLKVVDSHTYAPVPMLSYP,not soluble
5,MLRVGPLTIGTLDDWAPSTGSTVSWRPSAVAHTKASQAPISDVPVSYMQAQHIRGYCEQKAKGLDYSRLMVVSCQQPGQCDIRAANYVINAHLRRHDTYRSWFQYNGNGQIIRRTIQDPADIEFVPVHHGELTLPQIREIVQNTPDPLQWGCFRFGIVQGCDHFTFFASVDHVHVDAMIVGVTLMEFHLMYAALVGGHAPLELPPAGSYDDFCRRQHTFSSTLTVESPQVRAWTKFAEGTNGSFPDFPLPLGDPSKPSDADIVTVMMLDEEQTAQFESVCTAAGARFIGGVLACCGLAEHELTGTTTYYGLTPRDTRRTPADAMTQGWFTGLIPITVPIAGSAFGDAARAAQTSFDSGVKLAEVPYDRVVELSSTLTMPRPNFPVVNFLDAGAAPLSVLLTAELTGTNIGVYSDGRYSYQLSIYVIRVEQGTAVAVMFPDNPIARESVARYLATLKSVFQRVAESGQQQNVA,not soluble
6,MLRVLVGAVLPAMLLAAPPPINKLALFPDKSAWCEAKNITQIVGHSGCEAKSIQNRACLGQCFSYSVPNTFPQSTESLVHCDSCMPAQSMWEIVTLECPGHEEVPRVDKLVEKILHCSCQACGKEPSHEGLSVYVQGEDGPGSQPGTHPHPHPHPHPGGQTPEPEDPPGAPHTEEEGAED,soluble
7,MLSAFFKTAHCALRNMPIQTDLVGKWNFVSSENFDEYLKEVGVGWAIRTIATKTKPALEFAVNGDEWTMNSNSTFKNYTLKWKLGTASDEKTADGRDVSSVFSIENDHLVQIETGKGGGKDSRIERYIENGKLVIVCTCNGVKCTRVYEKAA,not soluble
8,MLSALRTAGAVGTRRLASTQAIASNSEAPKGIATTGTPFLNPSSKAEYALARLDDVLNLAQRGSIWPLTFGLACCAVEMMHFAAPRYDMDRYGVVFRASPRQADLIFVAGTVTNKMAPALRRIYDQMPEAKWVISMGSCANGGGYYHYAYSVLRGCDRVIPVDIYVPGCPPTAEALLYGVLQLQKKIKRKREAQLWYRR,not soluble
9,MLSAWFSGKYSVLKDENGYVFLDRDGDRFRHILNYLRCGTVHIGEDIRLLGEILEEAEYFGLQSLAQQLKEALLQCRVKQEEKESSVCGRMNNEDNLFHPMFEPLDGFSSSQTSQGEPLLTLLPSSQEFRLDEDF,soluble
10,MLSERMLKALNDQLNRELYSAYLYFAMAAYFEDLGLEGFANWMKAQAEEEIGHALRFYNYIYDRNGRVELDEIPKPPKEWESPLKAFEAAYEHEKFISKSIYELAALAEEEKDYSTRAFLEWFINEQVEEEASVKKILDKLKFAKDSPQILFMLDKELSARAPKLPGLLMQGGE,soluble
11,MLSFAPYRFSQVLEHQCTRNGSVLIRHTEEFTSKTCSRCGHIHYSLGGQKIFKCSNCGNHLPRDWNGALGNFLKALWDTTLEHHHHHH,not soluble
12,MLSHMVLTRQDIGRAASYYEDGADDYYAKDGDASEWQGKGAEELGLSGEVDSKRFRELLAGNIGEGHRIMRSATRQDSKERIGLDLTFSAPKSVSLQALVAGDAEIIKAHDRAVARTLEQAEARAQARQKIQGKTRIETTGNLVIGKFRHETSRERDPQLHTHAVILNMTKRSDGQWRALKNDEIVKATRYLGAVYNAELAHELQKLGYQLRYGKDGNFDLAHIDRQQIEGFSKRTEQIAEWYAARGLDPNSVSLEQKQAAKVLSRAKKTSVDREALRAEWQATAKELGIDFS,soluble
13,MLSNQLHFAKPTARTPLVVLVHGLLGSGADWQPVLSHLARTQCAALTLDLPGHGTNPERHCDNFAEAVEMIEQTVQAHVTSEVPVILVGYSLGGRLIMHGLAQGAFSRLNLRGAIIEGGHFGLQENEEKAARWQHDQQWAQRFSQQPIEHVLSDWYQQAVFSSLNHEQRQTLIAQRSANLGSSVAHMLLATSLAKQPYLLPALQALKLPIHYVCGEQDSKFQQLAESSGLSYSQVAQAGHNVHHEQPQAFAKIVQAMIHSIID,soluble
14,MLSRRGKMKRIKVLRNGPYLVEGSVPLYEEVIVTDEEGHTREFVERRQFPLKERYVLCRCGESGNKPYCDGTHIRTGFDGTETASLEPYIERARVFRAGDLELTDVPELCDHSRFCLRAGGIRELLRKGDRESIQIAIEEAMICPSGRLVLWDRKTGKPYERDYEKSIVVIHDKQKRCEGPLWVRGGIPIESADGREYEVRNRVTLCRCGLSENKPFCDGSHWMTAEEKLEFKRKWGIELEHHHHHH,not soluble
15,MLSTTTIGFPRIGNQRQLKFAMESYFKGDSGEAELLAVAHKVQSDAWALQKAAGIAVIGLDGTLYDQVLDTITWLGAIPPRFKHLSGLQRYYAMARGGAALDMSKFFDTNYHYLVPELGPDVLGPATAAGAPLQPDFSGPLDKLARGQAVVGRERAVPILIGPVTFVSLSRGCELPLDQAVARLLPTYCALLQQLAAAGAPEVQLHEPVLATSEGAGMRAEFETAYAQMAQAAGSVPLHLVTYYDDLGAAYPWAVQLPVAAVTLDFLGPPGAAVPSQTLALLQQHGFPADKRLGAGVVDGRSVWKDDGTAVALLRALLDTGAVSSDRLVVTSSAPLQHLPYDLGLELEAPKTPEAEPHLPPALAARLGFAKQKVEEIVSVARLAASPAAAAAAAGHGAVVQLQRLQQGKGVEDHTADIPAEWFSRPKPYDVRREQQLQLPAFPTTTIGSFPQTAEVRRLRQQLKSGRLTQAEYEGLIAGHIAHAVGVQEALGIDVLVHGEAERTDMVEYFGMQLGGMLFTRAGWVQSYGSRCVRPPLVVDDITYRGPMTCWEYKVASAYTRKPVKGMLTGPVTILNWSFPRKDISRAAQAMQLGLALRQEVAALEAAGCTIIQVDDPALREGLPLKRERWASYLSWAVDAFRLCTGVAAAGTQVVTHLCYSDFQDILPAIDRMDADVLTIENSRSDNAMMAALAAAGYGRDIGPGVYDVHSPVVPSVEFIKSRIRSFVDSGILSGRYDRIWVNPDCGLKTRGWPETIAALRNMVEAAAQARAELQLAGGAAVAPVAGGVEAAGKGAALGAAAGTSRCVDCCH,not soluble
16,MLTFVSPVFGAPKKRKWFSKLSGKQLCCFRCVSCLQVEQPSRSHPNYWRNIAREVNKTLKEHSLEANNPINVTDEDSSVFVDTTTDEREEGGPTFIQQSSRVQLDSAEISHSNSMTTDSHSLYQNNSPNSTGMEEEPSDYSVQFSTSWNPNTSWLQFPDLVESADIRRKTQEISKHQKEDVFKYYIDSENNLRPFHDAISPMHIFSKESETQTVSEPSAWENWHQLSQKGNEDSSSLDESLDDEWSEIDRWRPVAVELEGYNPKLTEDTSEEVRIEKNKLSKRREAVAWQKWFSTQQYNLSSELWERRIGVTGKDCDKNTSIYKQWLADMEQGLEP,not soluble
17,MLTISNQVQLADWEIELTAIRAQGAGGQNVNKVSSAIHLRFDISRSTLPAFYKERLLKMRDHRITKEGIIIIKAQQFRTQEKNREDALDRLKQLIQSATETQKARKETKPTRSSQHKRMDKKSQRGQTKSMRKKVDYLEHHHHHH,soluble
18,MLTLTAGKKAAMDRLSTQEGIISALAIDQRGALKKMIKALDVEPTDAQIETFKELVSKELTPYASAILLDPEYGLPAAKARDTEAGLLLAYEKTGYDATTPGRLPDLLADWSVLRLKEEGADAIKFLLYYDVDEDPEINHQKHVFIERLGSECAEEDLPFYLELVSYDAQIADATSLEYAKVKPHKVNEMMKEFSKPQYKVDVLKVEVPVNMNFVEGFAPAETAYTKEEAANYFLEQSQATDLPFIFLSAGVSTELFQETLRFAKEAGSTFNGVLCGRATWKNGVKPFVEAGETAACDWLKTEGRENIESLNEVIAATASSWHAKVQVNEG,not soluble
19,MLTNCASKTLAAVRANIRAIATSSARASDNLFVHRDTPEDNPNIPFEFTAENKKRVEAILSIYPEGHKRGAMIPLLDLAQRQYGWLPISAMHKVAEILQLPNMRVYEVATFYTMFMRKPTGKYHIQVCTTTPCWLRGSDDILETCKKQLGIGVGDTTKDRKFTISEVECLGACVNAPMVAINDDYYEDLTSKDMQDILNDLKADKISPPGPRNGRFASEPKGEPTSLSEEPKGPGFGLQAGL,not soluble
20,MLTVKQIEAAKPKEKPYRLLDGNGLYLYVPVSGKKVWQLRYKIDGKEKILTVGKYPLMTLQEARDKAWTARKDISVGIDPVKAKKASSNNNSFSAIYKEWYEHKKQVWSVGYATELAKMFDDDILPIIGGLEIQDIEPMQLLEVIRRFEDRGAMERANKARRRCGEVFRYAIVTGRAKYNPAPDLADAMKGYRKKNFPFLPADQIPAFNKALATFSGSIVSLIATKVLRYTALRTKELRSMLWKNVDFENRIITIDASVMKGRKIHVVPMSDQVVELLTTLSSITKPVSEFVFAGRNDKKKPICENAVLLVIKQIGYEGLESGHGFRHEFSTIMNEHEWPADAIEVQLAHANGGSVRGIYNHAQYLDKRREMMQWWADWLDEKVE,soluble
21,MLVNGALSTTGSFGQTVKYLQPHYNLVLFDLPFSGQSRAHNPDEMIVSKEDEVQILLQLIDLYQVNYLLSVSWGGVSALLALAQCPASVEKAIISSFSPVLNEPMLDYIDKAQVYLAAREKRKIGSLLNDTVGKHLPRLFKLYNYKHLIGLAEHEYGQIDFHISQIRTLSASNYVERFSSIKIPVLFINGEKDEYTTVEDARMFSNYIAKSSFNVVPDTGHFLDLESKAAWHHSQKTALSFLGT,not soluble
22,MLWQQKSFTEQTEQGTLYIVPTPIGNLEDMTFRAVRTLQEADVIAAEDTRQTKKLLAHFGIHTPLVSYHEHNKYASGRQLVEWLKEGKTVALVSDAGMPGISDPGYELIAAALAERCRVVPLPGANAALTALVASGLPTDRFLFVGFLKRAKKEKKEQLLSLKTAAETLIFYEAPHRLKETLALMYDIFGNRRIALGRELTKRFEEFIRGDLSDAVAWAEEHDIRGEFCLIVEGARDGNKQEQEGEEWWQPLSLVEHVDYYIREHSLSVKEAVKQAASDRNMSKRDVYRQYHQQQEEEKKEFL,not soluble
23,MMDCRLGCGACCIAPSISSPIPGMPNGKPAGVRCVQLNEDNLCQLFGRPERPKVCHDFKACPVVCGKTNQQALANLTELERLTLEHHHHHH,not soluble
